Results taken from US20050037449.

Key:
[1] = target: human BMAL1 expressed in E. coli as an N-terminal GST fusion protein [GST: P08515]
[2] = target: T1, c-Jun (1-79) expressed in E. coli as an N-terminal GST fusion protein, P05412
T1 chain: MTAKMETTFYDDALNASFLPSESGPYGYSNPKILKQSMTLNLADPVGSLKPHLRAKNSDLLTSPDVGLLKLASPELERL

[3] = target: glutathion S-transferase (GST) [GST: P08515]

B1: mouse ERK2 (New England Biolabs) (protein)
chain: MAAAAAAGPEMVRGQVFDVGPRYTNLSYIGEGAYGMVCSAYDNLNKVRVAIKKISPFEHQTYCQRTLREIKILLRFRHENIIGINDIIRAPTIEQMKDVYIVQDLMETDLYKLLKTQHLSNDHICYFLYQILRGLKYIHSANVLHRDLKPSNLLLNTTCDLKICDFGLARVADPDHDHTGFLTEYVATRWYRAPEIMLNSKGYTKSIDIWSVGCILAEMLSNRPIFPGKHYLDQLNHILGILGSPSQEDLNCIINLKARNYLLSLPHKNKVPWNRLFPNADSKALDLLDKMLTFNPHKRIEVEQALAHPYLEQYYDPSDEPIAEAPFKFDMELDDLPKEKLKELIFEETARFQPGYRS
- in vitro phosphorylation, ERK2 added instead of JNK3 [1]: substantially not phosphorylated by any of JNK1 and JNK2 (which are members of the JNK family), and ERK2

B2: human JNK2 (Upstate Biotechnology) (protein)
chain: MSDSKCDSQFYSVQVADSTFTVLKRYQQLKPIGSGAQGIVCAAFDTVLGINVAVKKLSRPFQNQTHAKRAYRELVLLKCVNHKNIISLLNVFTPQKTLEEFQDVYLVMELMDANLCQVIHMELDHERMSYLLYQMLCGIKHLHSAGIIHRDLKPSNIVVKSDCTLKILDFGLARTACTNFMMTPYVVTRYYRAPEVILGMGYKENVDIWSVGCIMGELVKGCVIFQGTDHIDQWNKVIEQLGTPSAEFMKKLQPTVRNYVENRPKYPGIKFEELFPDWIFPSESERDKIKTSQARDLLSKMLVIDPDKRISVDEALRHPYITVWYDPAEAEAPPPQIYDAQLEEREHAIEEWKELIYKEVMDWEERSKNGVVKDQPSDAAVSSNATPSQSSSINDISSMSTEQTLASDTDSSLDASTGPLEGCR
- in vitro phosphorylation, JNK2 added instead of JNK3 [1]: substantially not phosphorylated by any of JNK1 and JNK2 (which are members of the JNK family), and ERK2

B3: active form of human JNK3 (JNK3 α1) expressed as an N-terminal His-tagged protein (protein)
chain: MSLHFLYYCSEPTLDVKIAFCQGFDKQVDVSYIAKHYNMSKSKVDNQFYSVEVGDSTFTVLKRYQNLKPIGSGAQGIVCAAYDAVLDRNVAIKKLSRPFQNQTHAKRAYRELVLMKCVNHKNIISLLNVFTPQKTLEEFQDVYLVMELMDANLCQVIQMELDHERMSYLLYQMLCGIKHLHSAGIIHRDLKPSNIVVKSDCTLKILDFGLARTAGTSFMMTPYVVTRYYRAPEVILGMGYKENVDIWSVGCIMGEMVRHKILFPGRDYIDQWNKVIEQLGTPCPEFMKKLQPTVRNYVENRPKYAGLTFPKLFPDSLFPADSEHNKLKASQARDLLSKMLVIDPAKRISVDDALQHPYINVWYDPAEVEAPPPQIYDKQLDEREHTIEEWKELIYKEVMNSEEKTKNGVVKGQPSPSAQVQQ
- in vitro phosphorylation ([γ-32P]ATP kinase assay, SDS-PAGE, autoradiography) [2]: JNK3 did phosphorylate the GST-c-Jun (1-79) used as a positive control
- in vitro phosphorylation ([γ-32P]ATP kinase assay, SDS-PAGE, autoradiography) [1]: The phosphorylation of GST-BMAL1 was observed in this experimental system
- in vitro phosphorylation with 0 ng, 14 ng, 28 ng and 70 ng of active JNK3 [1]: GST-BMAL1 was phosphorylated in a JNK3 dose-dependent manner
- in vitro phosphorylation ([γ-32P]ATP kinase assay, SDS-PAGE, autoradiography) [3]: did not phosphorylate the GST

B4: human JNK1 (Upstate Biotechnology) (protein)
chain: MSRSKRDNNFYSVEIGDSTFTVLKRYQNLKPIGSGAQGIVCAAYDAILERNVAIKKLSRPFQNQTHAKRAYRELVLMKCVNHKNIIGLLNVFTPQKSLEEFQDVYIVMELMDANLCQVIQMELDHERMSYLLYQMLCGIKHLHSAGIIHRDLKPSNIVVKSDCTLKILDFGLARTAGTSFMMTPYVVTRYYRAPEVILGMGYKENVDLWSVGCIMGEMVCHKILFPGRDYIDQWNKVIEQLGTPCPEFMKKLQPTVRTYVENRPKYAGYSFEKLFPDVLFPADSEHNKLKASQARDLLSKMLVIDASKRISVDEALQHPYINVWYDPSEAEAPPPKIPDKQLDEREHTIEEWKELIYKEVMDLEERTKNGVIRGQPSPLAQVQQ
- in vitro phosphorylation, JNK1 added instead of JNK3 [1]: substantially not phosphorylated by any of JNK1 and JNK2 (which are members of the JNK family), and ERK2
